The source of these data is patent publication US20150376264A1.

“And” between values parts separate entries of the source, which are not always exact repeats. Equal values may be shown once. Read-outs that look alike come from different tables or passages of the source.

Common to all, as to assay: cell-based or functional assay
Experiment [1] concerns the target relaxin receptor (LGR7).
In experiment [2] the target is relaxin receptor (LGR7). The source holds these as a separate data set.
For another experiment, the target named is Leptin receptor.

For the substance Relaxin-2 (ligand), in the experiment with relaxin receptor (LGR7) [1], the Fluorescence reading (luciferase assay) at 0.000000481 uM was 1440 and 480 and 560; the Fluorescence reading (luciferase assay) at 0.00000144 uM is 2880 and 2160 and 1280; the Fluorescence reading (luciferase assay) at 0.00000433 uM is 4400 and 2400; the Fluorescence reading (luciferase assay) at 0.000013 uM is 10800 and 8960 and 9840. In the experiment with relaxin receptor (LGR7) [1], the Fluorescence reading (luciferase assay) at 0.0000389 uM is 12100 and 7120 and 12800; the Fluorescence reading (luciferase assay) at 0.000117 uM was 18500 and 18200; the Fluorescence reading (luciferase assay) at 0.00035 uM was 21500 and 19100; the Fluorescence reading (luciferase assay) at 0.001051 uM is 29000 and 26800. The Fluorescence reading (luciferase assay) at 0.003153 uM in the experiment with relaxin receptor (LGR7) [1] was 23300 and 23700. Besides, in the experiment with relaxin receptor (LGR7) [2], the Fluorescence reading (luciferase assay) at 0.00035 uM stood at 14600; the Fluorescence reading (luciferase assay) at 0.003153 uM is 24500; the Fluorescence reading (luciferase assay) at 0.00946 uM is 30200 and 24900 and 28500.

As to “human leptin (R&D) (from UniProt P41159 22-167) (ligand)”, in the experiment with Leptin receptor, the EC50 (Baf3-LepR cell proliferation, AlamarBlue) was determined as 0.352 nM; the Fluorescent reading (AlamarBlue) at 0.01 pg/ml (6.25E-08 nM) was 2500 and 2520; the Fluorescent reading (AlamarBlue) at 0.1 pg/ml amounted to 1700; the Fluorescent reading (AlamarBlue) at 0.1 pg/ml (6.25E-07 nM) is 2010. In addition, in the experiment with Leptin receptor, the Fluorescent reading (AlamarBlue) at 10 pg/ml is 924; the Fluorescent reading (AlamarBlue) at 10 pg/ml (6.25E-05 nM) came to 2110; the Fluorescent reading (AlamarBlue) at 100 pg/ml (6.25E-03 nM) was 725 and 1740; the Fluorescent reading (AlamarBlue) at 1000 pg/ml (0.0625 nM) is 7000 and 5190. In the experiment with Leptin receptor, the Fluorescent reading (AlamarBlue) at 10000 pg/ml (0.625 nM) was 26000 and 16500; the Fluorescent reading (AlamarBlue) at 100000 pg/ml (6.25 nM) was 29000 and 15300; the Fluorescent reading (AlamarBlue) at 1000000 pg/ml (62.5 nM) was 33500 and 26400; the Fluorescent reading (AlamarBlue) at 10000000 pg/ml (6250 nM) was 38300 and 32400.
